The values that follow come from publication PMC5430550 (Scientific Reports, 2017).

The term IC50 denotes the concentration that inhibits the measured activity by half. High values mean a need for much substance, low ones inhibition by little substance. As a reminder, the stoichiometry N is the number of molecules, sites or subunits per partner or assembly.

The target of data set [1] is RlmH (ribosomal large-subunit methyltransferase H) (Escherichia coli, UniProt P0A8I8, E138Q). Nature of the data set: isothermal titration calorimetry, sequential binding model. The note with it: 50 mM sodium phosphate pH 6.8, 200 mM KCl, 5% glycerol, 1 mM β-mercaptoethanol, 25 °C; first SAM site of the dimer; read-out: Calculated K D1. The text has this: (§1) isothermal titration calorimetry, sequential binding model on RlmH (ribosomal large-subunit methyltransferase H)

Data set [2] concerns the target T1, RlmH (ribosomal large-subunit methyltransferase H) (Escherichia coli, UniProt P0A8I8).
T1 construct: full length (155 residues, ~17 kDa), first Met replaced by MHHHHHHV (N-terminal His6 tag kept), expressed in E. coli BLR(DE3), homodimer
The description is as above. The note with it: 50 mM sodium phosphate pH 6.8, 200 mM KCl, 5% glycerol, 1 mM β-mercaptoethanol, 25 °C; first SAM site of the dimer; read-out: Calculated K D1.
Source text: as §1

Data set [3] concerns the target RlmH (ribosomal large-subunit methyltransferase H) (Escherichia coli, UniProt P0A8I8, E138A). The data set is described as above. The note with it: 50 mM sodium phosphate pH 6.8, 200 mM KCl, 5% glycerol, 1 mM β-mercaptoethanol, 25 °C; first SAM site of the dimer; read-out: Calculated K D1.
Source text: as §1

Data set [4] has as its target T1, RlmH (ribosomal large-subunit methyltransferase H). In words: X-ray crystal structure, […] Å. The note with it: co-crystallised with 2 mM sinefungin, pH 8.5, 16 °C; SAM-binding pocket, two ligands per dimer.
Data set [5] relates to RlmH H153F (Escherichia coli (ASKA clone JW0631)). Nature of the data set: competition. The note with it: pseudouridine 1915 lacking N3-methylation (delta-rlmH), Single-turnover competitive methylation assay, mutant pre-incubated with heat-activated 70S ribosomes 20 min at 25 C before wild-type RlmH-[3H]SAM.
Data set [6] concerns RlmH E138A (Escherichia coli (ASKA clone JW0631)). In words: competition. The note with it: pseudouridine 1915 lacking N3-methylation (delta-rlmH), Single-turnover competitive methylation assay, mutant pre-incubated with heat-activated 70S ribosomes 20 min at 25 C before wild-type RlmH-[3H]SAM.
The test system of data set [7] is RlmH Y152F (Escherichia coli (ASKA clone JW0631)). In words: competition. The note with it: pseudouridine 1915 lacking N3-methylation (delta-rlmH), Single-turnover competitive methylation assay, mutant pre-incubated with heat-activated 70S ribosomes 20 min at 25 C before wild-type RlmH-[3H]SAM.
Data set [8] relates to RlmH E138Q (Escherichia coli (ASKA clone JW0631)). In words: competition. The note with it: pseudouridine 1915 lacking N3-methylation (delta-rlmH), Single-turnover competitive methylation assay, mutant pre-incubated with heat-activated 70S ribosomes 20 min at 25 C before wild-type RlmH-[3H]SAM.
Data set [9] concerns RlmH R154A (Escherichia coli (ASKA clone JW0631)). In words: competition. The note with it: pseudouridine 1915 lacking N3-methylation (delta-rlmH), Single-turnover competitive methylation assay, mutant pre-incubated with heat-activated 70S ribosomes 20 min at 25 C before wild-type RlmH-[3H]SAM.
Data set [10] deals with the molecule itself. In words: SEC-MALS; Superdex S-200 HR10/30; 50 mM potassium phosphate pH 7.0, 300 mM KCl, 2 mM DTT, 5% glycerol; dialyzed protein injected at ~20 and ~200 µM (0.35 mg/ml and 3.85 mg/ml); same result at both.

Sequence of RlmH (ribosomal large-subunit methyltransferase H) (Escherichia coli, UniProt P0A8I8, E138Q) (P0A8I8 2-155 E138Q): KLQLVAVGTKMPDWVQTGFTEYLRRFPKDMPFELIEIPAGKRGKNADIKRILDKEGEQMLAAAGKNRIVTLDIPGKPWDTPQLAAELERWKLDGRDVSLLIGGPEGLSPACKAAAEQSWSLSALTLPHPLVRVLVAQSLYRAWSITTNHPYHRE
Sequence of RlmH (ribosomal large-subunit methyltransferase H) (Escherichia coli, UniProt P0A8I8, E138A) (P0A8I8 2-155 E138A): as the sequence (P0A8I8 2-155 E138Q) above, with Q137A counted along it

Turning to `C[S+](CC[C@H](N)C(=O)O)C[C@H]1O[C@@H](n2cnc3c(N)ncnc32)[C@H](O)[C@@H]1O` (stereo partly shown) [SAM, S-adenosyl-methionine], the figures for the Kd in data set [1], in [2] and in data set [3] were 7.05 ± 0.56 µM, 5.58 ± 0.31 µM and 6.7 ± 0.77 µM, respectively.
Regarding `Nc1ncnc2c1ncn2[C@@H]1O[C@H](C[C@@H](N)CC[C@H](N)C(=O)O)[C@@H](O)[C@H]1O` [SFG, sinefungin], the “X-ray crystal structure, 2.1 Å” value in data set [4] is reported as “crystal structures of E. coli RlmH bound to the cofactor SAM or to the inhibitor sinefungin”.
Regarding “delta-rlmH 70S ribosome (23S rRNA helix 69, pseudouridine 1915)”, the half-maximal inhibitory concentration (IC50) in data set [5] is 3 µM; in data set [6] it was 3 µM; in data set [7] it was 3 µM; in data set [8], 3 µM; in data set [9], 40 µM.

B1: ribosomal large-subunit methyltransferase H (RlmH), wild type, His6-tagged (enzyme, E. coli, UniProt P0A8I8 2-155, looked up)
chain: KLQLVAVGTKMPDWVQTGFTEYLRRFPKDMPFELIEIPAGKRGKNADIKRILDKEGEQMLAAAGKNRIVTLDIPGKPWDTPQLAAELERWKLDGRDVSLLIGGPEGLSPACKAAAEQSWSLSALTLPHPLVRVLVAESLYRAWSITTNHPYHRE
notes: RlmH (YbeA) of E. coli, 155 amino acids; rlmH gene from ASKA clone JW0631 in pET24b; no cleavage of the tag is described; Limits 2-155 follow from 'first methionine is replaced' and '155 amino acids'; also called YbeA; WT; source: E. coli BLR(DE3), purified (nickel IMAC twice, SEC on Superdex75); not shown: His6, N-terminal, kept
With B1, in data set [10], the “stoichiometry N” value stood at 2.

B2: RlmH R154A, His6-tagged (enzyme, E. coli, UniProt P0A8I8 2-155, looked up)
chain: KLQLVAVGTKMPDWVQTGFTEYLRRFPKDMPFELIEIPAGKRGKNADIKRILDKEGEQMLAAAGKNRIVTLDIPGKPWDTPQLAAELERWKLDGRDVSLLIGGPEGLSPACKAAAEQSWSLSALTLPHPLVRVLVAESLYRAWSITTNHPYHAE
notes: RlmH (YbeA) of E. coli, 155 amino acids; source: E. coli BLR(DE3), purified as the wild-type protein; not shown: His6, N-terminal, kept
For the molecule B2, the “stoichiometry N” value in [10] is 2.

B3: RlmH H153F, His6-tagged (enzyme, E. coli, UniProt P0A8I8 2-155, looked up)
chain: KLQLVAVGTKMPDWVQTGFTEYLRRFPKDMPFELIEIPAGKRGKNADIKRILDKEGEQMLAAAGKNRIVTLDIPGKPWDTPQLAAELERWKLDGRDVSLLIGGPEGLSPACKAAAEQSWSLSALTLPHPLVRVLVAESLYRAWSITTNHPYFRE
notes: as for B2
As for B3, the “stoichiometry N” value in data set [10] worked out at 2.

B4: RlmH Y152F, His6-tagged (enzyme, E. coli, UniProt P0A8I8 2-155, looked up)
chain: KLQLVAVGTKMPDWVQTGFTEYLRRFPKDMPFELIEIPAGKRGKNADIKRILDKEGEQMLAAAGKNRIVTLDIPGKPWDTPQLAAELERWKLDGRDVSLLIGGPEGLSPACKAAAEQSWSLSALTLPHPLVRVLVAESLYRAWSITTNHPFHRE
notes: as for B2
Consider B4, for which the “stoichiometry N” value in [10] came out at 2.
